# Assay results: publication doi:10.1101/2021.02.17.431492 (bioRxiv, 2021)
# Target: batCoV-SHC014 S-2P (spike ectodomain) (Bat SARS-like coronavirus RsSHC014, UniProt U5WLK5, stabilised)
# Test: ELISA
binder,measurement,value
"DH1047 (cross-neutralizing RBD antibody), IgG (antibody, V domains shown) VH: QVQLVQSGAEVKKPGASVQVSCQASANTFTNHYIHWVRQAPGQGLEWMGIIYPTGGNTIYAQGFQGRVTMTRDTSLNTIYLELSSLRSEDTAVYYCARDVRVDDSWSGYDLLSGGTYFDYWGQGTLVTVSS VL: not shown",binding result,binds
